Values quoted from earlier work, collected in publication PMC9794804.

Assays:
IL-6R = IL-6R (UniProt P08887)
TREM-1 = TREM-1 (UniProt Q9NP99)
TLR4 = TLR4 (UniProt O00206)
TLR4, sequence (O00206 24-631): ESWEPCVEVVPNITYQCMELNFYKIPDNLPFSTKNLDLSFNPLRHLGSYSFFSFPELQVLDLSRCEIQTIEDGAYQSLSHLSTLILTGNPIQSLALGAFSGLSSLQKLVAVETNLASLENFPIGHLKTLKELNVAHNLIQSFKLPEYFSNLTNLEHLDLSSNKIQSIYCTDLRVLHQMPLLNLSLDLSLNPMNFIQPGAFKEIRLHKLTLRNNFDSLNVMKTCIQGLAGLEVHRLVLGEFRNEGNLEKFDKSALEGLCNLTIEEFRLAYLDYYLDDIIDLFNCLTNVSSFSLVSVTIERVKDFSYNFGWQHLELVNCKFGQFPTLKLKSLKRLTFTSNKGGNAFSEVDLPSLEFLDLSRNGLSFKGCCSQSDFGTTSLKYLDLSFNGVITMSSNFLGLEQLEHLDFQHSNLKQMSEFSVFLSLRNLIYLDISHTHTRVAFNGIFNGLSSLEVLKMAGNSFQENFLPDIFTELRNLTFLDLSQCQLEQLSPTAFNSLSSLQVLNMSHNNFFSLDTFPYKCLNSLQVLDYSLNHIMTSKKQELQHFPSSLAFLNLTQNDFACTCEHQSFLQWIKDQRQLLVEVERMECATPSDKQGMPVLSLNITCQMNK

eCIRP, sequence (Q14011 whole entry): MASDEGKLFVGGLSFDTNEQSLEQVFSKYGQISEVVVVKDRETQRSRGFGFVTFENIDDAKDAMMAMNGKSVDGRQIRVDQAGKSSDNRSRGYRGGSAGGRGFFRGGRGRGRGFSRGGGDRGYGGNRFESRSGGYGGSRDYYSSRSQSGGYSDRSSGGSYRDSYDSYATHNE
IL-6R, sequence (P08887 20-365): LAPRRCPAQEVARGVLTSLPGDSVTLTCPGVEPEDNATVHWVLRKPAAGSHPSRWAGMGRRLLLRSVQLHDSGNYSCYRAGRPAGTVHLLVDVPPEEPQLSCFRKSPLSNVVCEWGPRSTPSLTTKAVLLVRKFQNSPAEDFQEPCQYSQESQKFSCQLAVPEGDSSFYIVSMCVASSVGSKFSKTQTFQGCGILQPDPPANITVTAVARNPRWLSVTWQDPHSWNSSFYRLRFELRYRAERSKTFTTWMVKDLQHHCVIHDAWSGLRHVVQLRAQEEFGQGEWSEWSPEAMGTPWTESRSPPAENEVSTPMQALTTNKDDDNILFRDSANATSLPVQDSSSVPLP
TREM-1, sequence (Q9NP99 21-205): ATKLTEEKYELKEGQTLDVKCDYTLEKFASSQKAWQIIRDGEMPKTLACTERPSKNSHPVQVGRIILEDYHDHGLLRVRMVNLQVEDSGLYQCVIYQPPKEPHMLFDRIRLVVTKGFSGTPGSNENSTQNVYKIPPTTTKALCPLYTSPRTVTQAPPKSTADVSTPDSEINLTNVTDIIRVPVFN

For eCIRP (from UniProt Q14011), the Kd (IL-6R) is listed as 98 nM, the Kd (TREM-1) is listed as 117 nM and the Kd (TLR4) is listed as 617 nM.
